Source: article doi:10.1101/2024.06.06.597810

Target: Biotin-labeled MHV stem helix peptide (MHV)
Experiment: BLI

S2P6 WT Fab
Kd: 70.4 nM
